From publication PMC5853329, “EjNAC3 transcriptionally regulates chilling-induced lignification of loquat fruit via physical interaction with an atypical CAD-like gene” come the findings set out here.

Data set [1] addresses T1, EjNAC3 (Eriobotrya japonica (loquat), UniProt A0A2D3HXD3 1-352).
T1 sequence: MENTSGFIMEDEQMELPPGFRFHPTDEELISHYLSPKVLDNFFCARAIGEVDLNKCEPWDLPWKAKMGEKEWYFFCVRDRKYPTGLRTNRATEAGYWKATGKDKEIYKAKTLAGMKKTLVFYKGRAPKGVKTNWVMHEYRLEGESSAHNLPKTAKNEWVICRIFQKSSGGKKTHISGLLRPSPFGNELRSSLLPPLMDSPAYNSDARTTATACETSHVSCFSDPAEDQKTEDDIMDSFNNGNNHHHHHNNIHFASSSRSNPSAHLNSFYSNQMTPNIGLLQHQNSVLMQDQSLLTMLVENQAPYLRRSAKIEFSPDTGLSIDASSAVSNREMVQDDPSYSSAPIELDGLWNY
Kind of data set: EMSA; 5 mM Mg2+, poly(dI-dC), biotinylated probe 1 nM (legend; Methods 2 nM); LightShift kit binding buffer, 5 mM MgCl2, 2.5% glycerol, 0.05% NP-40, 50 ng/ul poly(dI-dC), 50 ng protein, 20 min room temperature; 6% native PAGE, 0.5x TBE; pH and salt not given. The settings on record: protein: recombinant; tags: His (pET-32a fusion); chain copies: 2; blunt. A general note: A gel shift assay detects complexes by their altered migration in electrophoresis.

Data set [2] addresses T1, EjNAC3. Put plainly: competition; cold probe 100 or 300 nM vs 1 nM biotinylated probe; reduces shift; LightShift kit binding buffer, 5 mM MgCl2, 2.5% glycerol, 0.05% NP-40, 50 ng/ul poly(dI-dC), 50 ng protein, 20 min room temperature; 6% native PAGE, 0.5x TBE; pH and salt not given. Conditions: protein: recombinant; tags: His (pET-32a fusion); chain copies: 2; label: none; blunt.

B1: EjCAD-like promoter probe (-502 to -454) (dsDNA)
DNA 1: GTCCTATACGTAATCTTATACTCCAAATAAAATTAGGAATGCAGCATAA
DNA 2: TTATGCTGCATTCCTAATTTTATTTGGAGTATAAGATTACGTATAGGAC
Consider B1, for which, in the data set with EjNAC3 [1], the binding result is “binds”.

B2: EjCAD-like promoter cold probe (-502 to -454) (dsDNA)
DNA 1: B1 DNA 1
DNA 2: B1 DNA 2
As to B2, in the data set with EjNAC3 [2], the binding result is “binds”.
